Data on one molecule can be found in US20210388079A1.

The target in experiment [1] is NYESO1-001 (tetramer, row label of Figure 31) (human). Briefly: flow cytometry, HLA-A*02/NYESO1-001 tetramer staining of TCR-RNA-electroporated CD8+ T-cells; mock cells 1.09%. In general terms: A flow cytometer gives signals particle by particle.
The target in experiment [2] is HLA-A*02/SPINK2-001 tetramer (human). Put plainly: flow cytometry, HLA-A*02/SPINK2-001 tetramer staining of TCR-RNA-electroporated CD8+ T-cells; mock cells 0.97%.

B1: TCR R49P2B7, alpha and beta chains expressed in human primary CD8+ T-cells by RNA electroporation (TCR, V domains shown)
V domain 1: AQSVTQLGSHVSVSEGALVLLRCNYSSSVPPYLFWYVQYPNQGLQLLLKYTTGATLVKGINGFEAEFKKSETSFHLTKPSAHMSDAAEYFCAVRIFGNEKLTFGTGTRLTIIP
V domain 2: DVKVTQSSRYLVKRTGEKVFLECVQDMDHENMFWYRQDPGLGLRLIYFSYDVKMKEKGDIPEGYSVSREKKERFSLILESASTNQTSMYLCASSLMGELTGELFFGEGSRLTVLE
In the case of B1, the figures for the % of CD8+ T-cells in the tetramer-positive gate in experiment [1] and in experiment [2] were 0.96% and 30%, respectively.
